Results as given in patent publication US12708677B2, “Contrast agents, methods for preparing contrast agents, and methods of imaging” (Georgia State University Research Foundation, Inc., priority 2008, dated 2026).

Columns and labels:
[1] = Mg^2+ binding constant, competition assays
Excerpt: Since metal selectivity for Gd^3+ over other physiological metal ions is for minimizing the toxicity of the agents,^39, 40 we measured metal binding constants using dye-competition assays with various chelate-metal buffer systems (Table 1). Low limit metal binding affinities of the proteins were also estimated based on Tb^3+-sensitized FRET and competition assays. […] This is considered for in vivo applications of the contrast agent as the phosphate concentration in serum is maintained at ~1.3 mM.^6, 9 The stability of a contrast agent in blood circulation is another factor for in vivo applications. We characterized the stability by incubating Gd-CA1.CD2 with 75% human serum at 37° C. for 3 and 6 hours.

rabbits = assay: Immunogenicity in rabbits, ELISA and immunoblotting; assay type: in vivo, rabbit
Procedure: FIG. 2.7: Illustrates ELISA (left) or western blot (right) analyses of antibody produced in rabbit serum after i.p. injection of […] of protein CA1.CD2 or PEGylated CA1.CD2 (PEGCA1.CD2). In (left), Pre is the serum from pre-bleeding before antigen injection. CA1.CD2 was mixed with adjuvant (CA1.CD2+Ad) or with buffer saline (CA1.CD2+Sal) before injection. PabCD2 is the anti-serum from rabbits produced by a commercial source use CD2 as antigen. The open bars are the first bleed after first injection. The gray bars are the second bleed after second injection. The rabbit blood was taken 3 weeks after each injection. The error bars are standard deviations of four measurements. In (right), Western blots were performed with anti-serum (1st bleed) from rabbits that were injected; CA1.CD2 mixed with buffered saline (left panel, CA1.CD2+Sal), CA1.CD2 mixed with adjuvant (middle panel, CA1.CD2+Ad), and the PEGylated CA1.CD2 (right panel, PEG-CA1.CD2). The Western blots experiments were carried out with 0.5 mg of PEGylated CA1.CD2 (PEG-CA1.CD2) or unmodified CA1.CD2 (CA1.CD2). Arrow indicates the position of the detected protein bands 19 hours post injection.
Rabbits were i.p. injected with Gd-CA1.CD2 and its pegylated variants. The agents (CA1.CD2) were mixed with adjuvant or with buffer saline and injected at a dose of 3.0 nmole/kg according to the standard protocol for the antibody production. […]

B1: CA1.CD2: designed Gd^3+-binding protein, domain 1 of rat CD2 with ligand residues Glu15, Glu56, Asp58, Asp62, Asp64 (protein)
chain: RDSGTVWGALGHGIELNIPNFQMTDDIDEVRWERGSTLVAEFKRKMKPFLKSGAFEIDANGDLDIKNLTRDDSGTYNVTVYSTNGTRILNKALDLRILE
Metal binding constant (Log Ka) Mg^2+ [1]: <2.0 | disassociation constant (Kd) for Mg^2+ [1]: > 10 mM | Log (KGd/KMg) ([1]; metal selectivity): >10.06 | antibody production (rabbits; with adjuvant): resulted in immuno-responses | antibody production (rabbits; without adjuvant, double dose immunization, 3.0 nmole/kg i.p.): did not lead to antibody production
